Entries after “also recorded” stand apart in the source; their conditions may differ. Like-named read-outs stand apart in the source and are kept apart here.
Assays:
[1] = target: T1, αvβ3 expressed on placenta (placental trophoblasts) (Homo sapiens, UniProt P05106); experiment: Immunohistochemical staining of placental trophoblasts; assay type: binding; conditions: frozen thin sections, antibody 10 μg/ml
T1 construct: from tissue; host or cells: placenta (frozen sections)
Method: (§1) Table 3. Immunohistochemical staining of placental trophoblasts. Placental tissue, a rich source of αvβ3, was collected either immediately after parturition or from freshly-sacrificed, late-term pregnant animals. Tissue fragments, approximately 1 cm^3, were frozen in OCT, and thin sections were stained with monoclonal antibodies (10 μg/ml) at Sierra Biomedical (Sparks, Nev.). Vitaxin® recognized αvβ3 expressed on human, monkey, guinea pig, hamster and rabbit placenta, while […] with human and monkey αvβ3. […] ND, not done.

[2] = target: T2, αvβ3 expressed on placenta (placental trophoblasts) (Rattus norvegicus, UniProt Q8R2H2); experiment: as above; assay type: binding; conditions: frozen thin sections, antibody 10 μg/ml
T2 construct: from tissue; host or cells: placenta (frozen sections)
T2 sequence (Q8R2H2 26-787): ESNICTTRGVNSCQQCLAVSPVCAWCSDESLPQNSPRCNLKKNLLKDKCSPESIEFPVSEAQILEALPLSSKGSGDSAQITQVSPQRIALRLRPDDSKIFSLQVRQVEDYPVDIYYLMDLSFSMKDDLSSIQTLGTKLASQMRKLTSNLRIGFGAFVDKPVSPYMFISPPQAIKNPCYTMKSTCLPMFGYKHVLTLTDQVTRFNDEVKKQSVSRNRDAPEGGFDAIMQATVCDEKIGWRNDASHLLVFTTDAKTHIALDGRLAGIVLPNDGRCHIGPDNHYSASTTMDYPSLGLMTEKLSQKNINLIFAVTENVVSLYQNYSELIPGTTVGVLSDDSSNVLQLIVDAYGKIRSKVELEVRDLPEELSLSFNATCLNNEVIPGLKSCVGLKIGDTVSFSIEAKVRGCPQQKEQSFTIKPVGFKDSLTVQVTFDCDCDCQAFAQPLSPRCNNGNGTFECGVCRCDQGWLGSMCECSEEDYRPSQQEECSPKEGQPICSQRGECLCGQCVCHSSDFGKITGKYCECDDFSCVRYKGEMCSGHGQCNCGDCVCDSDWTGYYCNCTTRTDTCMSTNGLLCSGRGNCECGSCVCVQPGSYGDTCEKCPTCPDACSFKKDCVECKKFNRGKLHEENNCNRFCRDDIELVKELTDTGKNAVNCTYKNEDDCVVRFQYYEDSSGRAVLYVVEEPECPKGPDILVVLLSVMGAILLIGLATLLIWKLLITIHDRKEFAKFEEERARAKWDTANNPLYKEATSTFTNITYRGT
Method: as §1

human αvβ3 [3] = target: T3, human αvβ3 (Homo sapiens, UniProt P05106); experiment: Flow cytometric analysis of antibody binding to cell lines; conditions: for Fold Increase Over Control (mean channel fluorescence): 5×10^5 cells, 0.5 μg antibody, vs isotype matched control antibody
T3 construct: endogenous in cells; host or cells: M21 melanoma, HMVEC, HUVEC
T3 sequence (P05106 27-788): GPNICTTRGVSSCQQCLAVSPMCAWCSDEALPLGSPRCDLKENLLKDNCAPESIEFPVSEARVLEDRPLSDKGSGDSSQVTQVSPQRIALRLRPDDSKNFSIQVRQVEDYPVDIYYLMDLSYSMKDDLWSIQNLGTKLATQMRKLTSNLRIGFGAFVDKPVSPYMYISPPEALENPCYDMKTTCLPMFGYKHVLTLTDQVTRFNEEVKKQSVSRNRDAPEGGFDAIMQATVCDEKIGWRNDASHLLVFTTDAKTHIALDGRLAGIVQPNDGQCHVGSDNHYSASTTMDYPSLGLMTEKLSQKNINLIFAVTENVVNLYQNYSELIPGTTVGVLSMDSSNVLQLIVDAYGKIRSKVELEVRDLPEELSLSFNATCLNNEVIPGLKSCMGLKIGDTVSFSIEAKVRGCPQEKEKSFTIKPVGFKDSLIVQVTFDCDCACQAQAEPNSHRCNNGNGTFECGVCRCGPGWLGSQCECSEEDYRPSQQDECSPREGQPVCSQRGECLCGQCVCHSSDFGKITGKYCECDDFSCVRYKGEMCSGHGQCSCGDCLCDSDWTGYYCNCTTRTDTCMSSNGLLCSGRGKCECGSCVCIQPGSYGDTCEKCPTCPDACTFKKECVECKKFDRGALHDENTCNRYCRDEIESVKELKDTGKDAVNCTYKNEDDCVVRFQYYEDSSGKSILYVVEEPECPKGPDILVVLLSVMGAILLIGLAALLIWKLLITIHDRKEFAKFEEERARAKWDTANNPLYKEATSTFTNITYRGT
T3 sequence (P06756 31-889 partner limits assumed): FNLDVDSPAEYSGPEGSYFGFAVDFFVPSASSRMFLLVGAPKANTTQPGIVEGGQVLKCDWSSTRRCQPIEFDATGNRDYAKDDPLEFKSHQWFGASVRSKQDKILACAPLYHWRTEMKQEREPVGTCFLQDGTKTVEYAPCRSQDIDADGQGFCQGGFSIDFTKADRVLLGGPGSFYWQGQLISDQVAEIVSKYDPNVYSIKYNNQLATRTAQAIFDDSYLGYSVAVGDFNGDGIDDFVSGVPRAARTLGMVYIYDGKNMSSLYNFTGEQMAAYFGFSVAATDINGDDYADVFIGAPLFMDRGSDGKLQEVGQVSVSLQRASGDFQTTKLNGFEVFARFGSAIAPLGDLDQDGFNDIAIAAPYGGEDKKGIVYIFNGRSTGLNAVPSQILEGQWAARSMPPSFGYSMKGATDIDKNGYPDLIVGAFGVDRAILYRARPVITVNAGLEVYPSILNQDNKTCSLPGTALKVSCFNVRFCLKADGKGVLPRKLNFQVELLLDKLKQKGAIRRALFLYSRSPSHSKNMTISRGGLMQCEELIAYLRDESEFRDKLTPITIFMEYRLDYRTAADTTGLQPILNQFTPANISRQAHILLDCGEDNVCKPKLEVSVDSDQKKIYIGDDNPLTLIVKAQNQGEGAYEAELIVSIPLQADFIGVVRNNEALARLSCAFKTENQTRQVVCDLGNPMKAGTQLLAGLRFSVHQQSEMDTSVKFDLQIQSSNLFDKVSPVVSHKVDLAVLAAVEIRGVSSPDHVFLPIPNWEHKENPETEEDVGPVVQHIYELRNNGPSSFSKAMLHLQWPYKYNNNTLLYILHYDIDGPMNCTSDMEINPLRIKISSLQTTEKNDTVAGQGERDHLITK
T3 sequence (P06756 891-1048 partner limits assumed): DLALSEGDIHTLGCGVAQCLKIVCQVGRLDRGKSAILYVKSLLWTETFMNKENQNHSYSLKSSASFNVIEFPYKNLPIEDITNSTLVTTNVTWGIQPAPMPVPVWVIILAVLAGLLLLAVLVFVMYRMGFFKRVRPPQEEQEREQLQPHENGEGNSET
Method: (§2) FIG. 2. Flow cytometric analysis of antibody binding to tumor cell lines. […] Rat αvβ3 was not recognized by any of the three antibodies but was detected by the anti-rat αvβ3 control antibody.
(§3) Cells (5×10^5) were incubated with 0.5 μg of antibody and bound antibody was detected with a phycoerythrin-labeled secondary antibody. Mean channel fluorescence results are expressed as fold increase over an isotype matched control antibody. The mouse anti-rat β3 antibody F11 was included for as a positive control for the rat cell line RG2. HMVEC, human microvascular endothelial cells; ND, not done.

Rat αvβ3 = target: T4, Rat αvβ3 (Rattus norvegicus, UniProt Q8R2H2); experiment: as above; conditions: Rat RG2 glioma; 5×10^5 cells, 0.5 μg antibody; vs isotype matched control antibody
T4 construct: endogenous in cells; host or cells: RG2 glioma
T4 sequence (Q8R2H2 26-787): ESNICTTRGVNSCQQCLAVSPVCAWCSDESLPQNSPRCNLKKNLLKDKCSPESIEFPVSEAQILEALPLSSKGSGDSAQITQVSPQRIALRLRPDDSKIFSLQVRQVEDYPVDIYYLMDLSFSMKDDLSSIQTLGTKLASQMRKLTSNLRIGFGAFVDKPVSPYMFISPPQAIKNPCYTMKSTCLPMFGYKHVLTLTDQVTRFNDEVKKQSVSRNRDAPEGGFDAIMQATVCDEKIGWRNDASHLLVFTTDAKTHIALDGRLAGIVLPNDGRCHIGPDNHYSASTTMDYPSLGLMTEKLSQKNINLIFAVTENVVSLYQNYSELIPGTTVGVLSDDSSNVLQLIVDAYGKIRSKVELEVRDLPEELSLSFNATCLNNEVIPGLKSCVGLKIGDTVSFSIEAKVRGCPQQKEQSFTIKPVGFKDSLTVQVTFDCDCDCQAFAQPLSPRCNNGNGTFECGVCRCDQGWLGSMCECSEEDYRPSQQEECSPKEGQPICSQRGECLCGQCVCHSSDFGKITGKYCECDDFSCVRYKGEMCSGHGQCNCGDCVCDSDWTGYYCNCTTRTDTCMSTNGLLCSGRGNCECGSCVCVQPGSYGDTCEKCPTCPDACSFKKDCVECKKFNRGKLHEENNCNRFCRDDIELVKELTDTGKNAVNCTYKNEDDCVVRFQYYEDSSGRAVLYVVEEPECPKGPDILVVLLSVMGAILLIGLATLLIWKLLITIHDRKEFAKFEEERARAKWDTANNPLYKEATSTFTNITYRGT
Method: as §2, §3

Rabbit αvβ3 [4] = experiment: as above
Method: as §2, §3

hamster αvβ3 [5] = experiment: as above
Method: as §2, §3

human αvβ3 [6] = target: T3, human αvβ3; experiment: 125-labeled Vitaxin binding affinities and number of binding sites on cell lines; conditions: for Kd: read-out: Kp
Excerpt: (§4) ^125-labeled Vitaxin® was used to determine binding affinities and number of binding sites for human, rabbit and hamster cell lines. The affinity of Vitaxin® for hamster αvβ3 was approximately 2-3 fold lower than human αvβ3 while its affinity for rabbit αvβ3 was about 4-10 fold lower than human αvβ3.

Rabbit αvβ3 [7] = experiment: as above; conditions: for Kd: read-out: Kp
Excerpt: as §4

hamster αvβ3 [8] = experiment: as above
Excerpt: as §4

[9] = flow cytometry, tumor cell lines, FIG. 2
[10] = Human HUVEC primary endothelium

T1 sequence (P05106 27-788): as the sequence (P05106 27-788) above
T1 sequence (P06756 31-889 partner limits assumed): as the sequence (P06756 31-889 partner limits assumed) above
T1 sequence (P06756 891-1048 partner limits assumed): as the sequence (P06756 891-1048 partner limits assumed) above

Staining of Placental Trophoblasts [1]: recognized | Staining of Placental Trophoblasts [2]: Negative | Fold Increase Over Control (mean channel fluorescence) (human αvβ3 [3]; Human HMVEC endothelial): 8.9 fold | Fold Increase Over Control (mean channel fluorescence) (human αvβ3 [3]; Human M21 melanoma): 73 fold | Fold Increase Over Control (mean channel fluorescence) (Rat αvβ3): 0.95 fold | Binding Sites (human αvβ3 [6]; [10]): 8.1 × 10^4 | Kd (human αvβ3 [6]; [10]): 3.3 nM | Binding Sites (human αvβ3 [6]; Human M21 melanoma): 1.3 × 10^5 | Kd (human αvβ3 [6]; Human M21 melanoma): 2.2 nM
B1: Vitaxin®: humanized blocking monoclonal antibody that binds Integrin αVβ3 (MEDI-522, MedImmune); humanized and optimized version of LM609 (antibody, chains of the INN, looked up, V domains shown)
VH: QVQLVESGGGVVQPGRSLRLSCAASGFTFSSYDMSWVRQAPGKGLEWVAKVSSGGGSTYYLDTVQGRFTISRDNSKNTLYLQMNSLRAEDTAVYYCARHLHGSFASWGQGTTVTVSS
VL: EIVLTQSPATLSLSPGERATLSCQASQSISNFLHWYQQRPGQAPRLLIRYRSQSISGIPARFSGSGSGTDFTLTISSLEPEDFAVYYCQQSGSWPLTFGGGTKVEIK
binding to human αvβ3 (in words) (human αvβ3 [3]; [9]): recognized; also recorded: capable of binding | Fold Increase Over Control (mean channel fluorescence) (Rabbit αvβ3 [4]; Rabbit VX7 carcinoma, 5×10^5 cells, 0.5 μg antibody, vs isotype matched control antibody): 17 fold | binding to rabbit αvβ3 (in words) (Rabbit αvβ3 [4]; [9]): recognized | Fold Increase Over Control (mean channel fluorescence) (hamster αvβ3 [5]; Hamster CCL-49 melanoma, 5×10^5 cells, 0.5 μg antibody, vs isotype matched control antibody): 12 fold | binding to hamster αvβ3 (in words) (hamster αvβ3 [5]; [9]): recognized; also recorded: capable of binding | Kd (Rabbit αvβ3 [7]; Rabbit RK1 kidney epithelium): 23 nM | Kd (Rabbit αvβ3 [7]; Rabbit VX7 carcinoma): 8.9 nM | affinity for rabbit αvβ3, fold lower than human αvβ3 (Rabbit αvβ3 [7]; rabbit vs human cell lines): 4-10 fold | Kd (hamster αvβ3 [8]; Hamster CCL-49 melanoma, read-out: Kp): 6.9 nM | affinity for hamster αvβ3, fold lower than human αvβ3 (hamster αvβ3 [8]; hamster vs human cell lines): 2-3 fold

— patent publication US20040001835A1, “Prevention or treatment of cancer using integrin alphavbeta3 antagonists in combination with other agents” (MedImmune, Inc., priority 2002, published 2004)
